The numbers were not newly measured in article PMC4819957, which cites them from elsewhere.

This series addresses Pex3 (Homo sapiens) (UniProt P56589).
Sequence of UniProt P56589 (P56589 whole entry): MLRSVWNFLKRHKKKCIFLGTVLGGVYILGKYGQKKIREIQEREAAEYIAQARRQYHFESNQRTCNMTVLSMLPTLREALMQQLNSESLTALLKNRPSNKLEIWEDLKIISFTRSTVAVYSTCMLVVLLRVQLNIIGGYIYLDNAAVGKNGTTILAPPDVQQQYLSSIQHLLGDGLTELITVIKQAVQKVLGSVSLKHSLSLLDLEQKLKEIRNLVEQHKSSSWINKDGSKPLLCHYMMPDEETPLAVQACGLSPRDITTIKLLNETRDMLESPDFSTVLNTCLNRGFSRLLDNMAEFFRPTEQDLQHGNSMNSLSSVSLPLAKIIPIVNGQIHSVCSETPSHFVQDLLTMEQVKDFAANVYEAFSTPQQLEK

Broadly, the Kd is a measure of binding affinity in units of concentration. Consider Pex19 (from UniProt P40855), for which the Kd is under 10 nM.
